Measured values as given in patent publication US20230071765A1, “COMPOSITIONS HAVING THIOREDOXIN ACTIVITY AND RELATED METHODS” (ORPRO THERAPEUTICS, INC., priority 2020, published 2023).

Legend:
[1] = lyophilized from 9% sucrose, 1.7 mM EDTA, pH 5.2; 40° C. for six months; cited from earlier work
rats = settings: rat, in vivo; cited from earlier work
[2] = system: IL-6 and TNF-alpha in HBE-ALI from healthy and CF donors; experiment: inflammatory cytokine release in HBE-ALI cultures (ELISA); assay type: cell-based, human; settings: for effect on the inflammatory effect of saline: CF HBE-ALI
Description: Nasal airway epithelial cells from normal healthy volunteers or CF subjects were cultured in serum-free media at an air-liquid interface with mucociliary differentiation, based on methods adapted from the approach of Schlegel and colleagues (Suprynowicz, F. A., et al., Proc Natl Acad Sci USA, 2012, 109(49): p. 20035-40; Becker, M. N., et al., Am J Respir Crit Care Med, 2004, 169(5): p. 645-53). A number of unique CF and healthy control specimens were collected, expanded, and cryopreserved using this technique. 30 wells were cultured to differentiation at ALI for over 30 days from each of three unique normal or CF donors (homozygous for F508del). Triplicate cultures were exposed at the apical surface to PBS, native Trx, or ORP-100 and both apical and basolateral media samples were collected at 4 and 24 hours after challenge. Apical collection occurred by placing 200 uL of sterile PBS on the apical surface and recovering this after 15 min incubation. ELISA for IL-6 was performed for each sample in duplicate and others were measured using a multiplexed assay. Media was centrifuged to remove debris and stored at −80 C until ELISA analysis.
FIG. 8: Levels of IL-6 or TNFα induced after 24 hr in the basolateral ALI media of primary HBE cultures from nasal epithelia of non-CF (left series of bars) and CF donors (right series of bars). Delivery: apical-surface bolus application for 15 min of 200 uL volumes of control or test article solutions. PBS: 0.9% phosphate-buffered saline negative vehicle control (black bars); ORP100-1000: 1 mM ORP-100 in PBS (solid dark bars); […] uM ORP-100 in PBS (solid light bars); Trx-1000: 1 mM native thioredoxin-1 in PBS (dark hatched bars); Trx-100: 100 uM native thioredoxin-1 in PBS (light hatched bars). All concentrations reflect volumes delivered to the HBE apical surface.

Sprague-Dawley rats = experiment: nebulized aerosol inhalation in rats, inflammatory potential and toxicity; assay type: in vivo, rat; settings: for neutrophil influx (sucrose/EDTA formulation effect): nebulized aerosol; for adverse test article effects (clinical observations, BALF chemistry, cell count, differential, lung cytokines, macroscopic and microscopic findings): target delivered doses 10 mg/kg and 40 mg/kg, aerosol, 1, 4 or 20 hours post exposure
Description: This example evaluated and compared the in vivo inflammatory potential among three forms of C35S monothiol Trx (oxidized ORP-100, reduced ORP-100, and reduced ORP100S) formulated in the sucrose/EDTA formulation composition described in PCT WO 2006/090127 and delivered to normal rats as nebulized aerosols at doses of […] and 40 mg/kg.
All three forms of ORP-100 were lyophilized following reduction with DTT and formulated in sucrose buffer (9% sucrose 1.17 mM EDTA pH 5.2). All test articles were evaluated at low (10 mg/kg) and high (40 mg/kg) target delivered doses. The test articles were administered to Charles River Sprague-Dawley rats via inhalation as an aerosol. The aerosol of each of the test articles was produced by a commercially available vibrating mesh nebulizer whose output was attached to a nose-only exposure system.
Target doses were achieved via modulation of the aerosol exposure time while maintaining the aerosol concentration constant. Animals in Low Dose groups received a single dose of test article during a 20 minute exposure to achieve a target delivered dose of 10 mg/kg and deposited dose of 1 mg/kg. Animals in High Dose groups received a single dose of test article during a 75 minute exposure to achieve a target delivered dose of 40 mg/kg and target deposited dose of 4 mg/kg.
Animals in each study group were evaluated for potential toxicity by measuring various parameters including: clinical signs, body weight, clinical pathology (BALF cell counts, LDH and albumin measurements), lung tissue cytokines, lung weights, gross pathology, and microscopic pathology of respiratory target tissues. Additionally, three animals in each Low Dose group had lung tissues collected for immunohistochemistry (Alizèe Pathology, Thurmont, M D). Three (3) animals in each Low Dose group were to be euthanized at 1 hour and 4 hours post exposure for blood and tissue collections. Four (4) animals in each High Dose group were euthanized at 4 and 20 hours post exposure for blood and tissue collections.

[3] = stability analysis, lyophilized vs solution (DTNB and SEC-HPLC); assay type: physicochemical; settings: lyophilized form, six months at 40° C.
Description: Prior work, e.g. WO 2006/090127, teaches compositions for maintenance of thioredoxin in the reduced state. Significant experimentation was required to derive compositions able to keep thioredoxin reduced during storage, and these compositions were complex and required saccharide derivatives and EDTA as excipients. […] ORP-100 and ORP100S proteins were reduced with 100 mM DTT and exchanged over a NAP-5 column into volatile 20 mM ammonium acetate buffer at pH 5.5 to remove residual reductant. Half of the material was frozen at −80° C. then lyophilized while the remainder was kept in solution at either 5° C. or 40° C. for various time points (“PH5.5”). Lyophilized protein was reconstituted back into 20 mM ammonium acetate pH 5.5 immediately prior to evaluation at each time point (“Lyophilized”). Stability was assessed by measuring both free SH groups (DTNB chromogenic assay) and the percent monomers (SEC-HPLC).
For FIG. 3: PH5.5: ORP-100 or ORP100S protein maintained in liquid formulation of 20 mM ammonium acetate, pH 5.5 for 0, 3, 7, 14, 21, 28, 90, or 180 days. Lyophilized: ORP-100 or ORP100S protein stored in the lyophilized form at 5° C. or 40° C. for the 0, 3, 7, 14, 21, 28, 90, or 180 days and assayed following reconstitution in 20 mM ammonium acetate, pH 5.5. Percent free sulfhydryl (reduction state) at 5° C. Second panel: Percent monomer determined by SEC assay at 5° C. Third panel: Percent free sulfhydryl at 40° C. Fourth panel: Percent monomer determined by SEC assay at 40° C.

[4] = thiol pKa (acid-dissociation constant); assay type: physicochemical; settings: verified experimentally, data not shown
Source text: The human CF airway surface liquid is approximately 0.8 pH units more acidic than that of unaffected individuals due to the loss of bicarbonate-mediated buffering of proton secretion (Garland A L, Walton W G, Coakley R D, et al., 2013, Molecular basis for pH-dependent mucosal dehydration in cystic fibrosis airways. PNAS 110:15973-8; Shah V S, Meyerholz D K, Tang X X, et al., 2016, Airway acidification initiates host defense abnormalities in cystic fibrosis mice, Science 351:503-7). This has consequences for the clinical use of reducing agents to treat condensed, abnormal mucus. […] Cys thiol pKa values range from pH 8.5 (cysteamine) to pH 9.5 (NAC). In marked contrast to these classical thiols, the structurally-stabilized pKa of the Trx active site Cys32 is two to three logs lower (pH 6.1-6.3), allowing high activity even at acidic CF airway pH (FIG. 2).

B1: thioredoxin: native human thioredoxin-1, 12 kDa redox protein with Cys-Gly-Pro-Cys active site (protein)
chain: VKQIESKTAFQEALDAAGDKLVVVDFSATWCGPCKMIKPFFHSLSEKYSNVIFLEVDVDDCQDVASECEVKCMPTFQFFKKGQKVGEFSGANKEKLEATINELV
retention of starting activity [1]: almost complete retention of starting activity | neutrophil influx and inflammatory cytokine release (rats): high levels of neutrophil influx and inflammatory cytokine release

B2: oxidized ORP-100: oxidized form of ORP-100, control lacking thioredoxin activity (protein, UniProt P10599 2-105, looked up, variant C35S)
Thioredoxin: VKQIESKTAFQEALDAAGDKLVVVDFSATWCGPSKMIKPFFHSLSEKYSNVIFLEVDVDDCQDVASECEVKCMPTFQFFKKGQKVGEFSGANKEKLEATINELV
modifications: oxidized
effect on the inflammatory effect of saline [2]: not | neutrophil influx (sucrose/EDTA formulation effect) (Sprague-Dawley rats): induced | adverse test article effects (clinical observations, BALF chemistry, cell count, differential, lung cytokines, macroscopic and microscopic findings) (Sprague-Dawley rats): no evidence of adverse test article effects

B3: oxidized thioredoxin: oxidized thioredoxin inactive protein control of Rancourt et al. 2007 (protein, UniProt P10599 2-105, looked up)
Thioredoxin: VKQIESKTAFQEALDAAGDKLVVVDFSATWCGPCKMIKPFFHSLSEKYSNVIFLEVDVDDCQDVASECEVKCMPTFQFFKKGQKVGEFSGANKEKLEATINELV
modifications: oxidized
BALF cell count and cytokine results (rats): identical BALF cell count and cytokine results as normal saline alone

B4: ORP-100: thioredoxin protein having a monothiol active site in which the cysteine at position 35 has been replaced with serine (protein, UniProt P10599 2-105, looked up, variant C35S)
Thioredoxin: VKQIESKTAFQEALDAAGDKLVVVDFSATWCGPSKMIKPFFHSLSEKYSNVIFLEVDVDDCQDVASECEVKCMPTFQFFKKGQKVGEFSGANKEKLEATINELV
storage stability (free SH, percent monomer) [3]: excellent storage stability | pKa compared to native Trx [4]: same pKa as native Trx | effect on the inflammatory effect of saline [2]: abrogated the inflammatory effect of saline | anti-inflammatory effect vs. PBS vehicle alone ([2]; concentrations above 100 uM, in normal (isotonic) PBS): significant anti-inflammatory effect | induction of IL-6 and TNF-alpha ([2]; reduced form, in PBS, apical application): non-inflammatory | differences in BALF LDH, albumin, cell counts, differential counts and lung tissue cytokines vs. oxidized ORP-100 control groups (Sprague-Dawley rats; low and high dose aerosol): unremarkable | neutrophil influx (sucrose/EDTA formulation effect) (Sprague-Dawley rats): partially able to mitigate the formulation effect | adverse test article effects (clinical observations, BALF chemistry, cell count, differential, lung cytokines, macroscopic and microscopic findings) (Sprague-Dawley rats): no evidence of adverse test article effects
